One block for each binder: values may come before it.
Tests used:
[1] = target: T1, ABI5-GST (Arabidopsis thaliana, UniProt Q9SJN0 1-442); assay: pull-down; in vitro; fusion proteins incubated with glutathione resin overnight in column buffer (20 mM Tris-HCl pH 7.5, 200 mM NaCl, 1 mM PMSF, 1 mM DTT); blots with anti-GST and anti-MBP; conditions: both partners purified
T1 construct: ABI5, Arabidopsis thaliana, At2g36270, full-length CDS in pGEX4T-1; printed both as ABI5-GST and as GST-ABI5; also called GST-ABI5; source: Escherichia coli transetta
T1 sequence (looked up): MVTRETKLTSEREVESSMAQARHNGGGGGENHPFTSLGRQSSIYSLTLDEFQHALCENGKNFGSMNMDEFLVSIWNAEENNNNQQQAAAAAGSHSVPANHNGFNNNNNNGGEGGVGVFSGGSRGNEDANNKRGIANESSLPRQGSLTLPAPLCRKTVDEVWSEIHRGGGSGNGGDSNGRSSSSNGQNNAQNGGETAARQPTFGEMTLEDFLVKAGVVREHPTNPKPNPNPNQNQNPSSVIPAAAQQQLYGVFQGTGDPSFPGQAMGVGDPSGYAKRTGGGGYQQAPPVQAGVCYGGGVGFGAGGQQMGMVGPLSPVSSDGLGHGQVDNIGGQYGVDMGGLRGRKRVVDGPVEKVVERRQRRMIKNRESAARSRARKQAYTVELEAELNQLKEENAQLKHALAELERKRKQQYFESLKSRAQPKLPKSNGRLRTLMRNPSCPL

[2] = target: T1, ABI5-GST; assay: pull-down; in vitro; SPL3 and ABI5 fusion proteins incubated with amylose resin overnight in column buffer (20 mM Tris-HCl pH 7.5, 200 mM NaCl, 1 mM PMSF, 1 mM DTT); blots with anti-GST and anti-MBP; conditions: both partners purified

binding result [1]: binds
B1: MBP-SPL9 (natural protein, Arabidopsis thaliana, UniProt Q700W2 1-375, looked up)
chain: MEMGSNSGPGHGPGQAESGGSSTESSSFSGGLMFGQKIYFEDGGGGSGSSSSGGRSNRRVRGGGSGQSGQIPRCQVEGCGMDLTNAKGYYSRHRVCGVHSKTPKVTVAGIEQRFCQQCSRFHQLPEFDLEKRSCRRRLAGHNERRRKPQPASLSVLASRYGRIAPSLYENGDAGMNGSFLGNQEIGWPSSRTLDTRVMRRPVSSPSWQINPMNVFSQGSVGGGGTSFSSPEIMDTKLESYKGIGDSNCALSLLSNPHQPHDNNNNNNNNNNNNNNTWRASSGFGPMTVTMAQPPPAPSQHQYLNPPWVFKDNDNDMSPVLNLGRYTEPDNCQISSGTAMGEFELSDHHHQSRRQYMEDENTRAYDSSSHHTNWSL
notes: SPL9, Arabidopsis thaliana, At2g42200, full-length CDS in pMAL-c2X; source: Escherichia coli transetta, purified

binding result [2]: binds
B2: MBP-SPL3 (natural protein, Arabidopsis thaliana, UniProt P93015 1-131, looked up)
chain: MSMRRSKAEGKRSLRELSEEEEEEEETEDEDTFEEEEALEKKQKGKATSSSGVCQVESCTADMSKAKQYHKRHKVCQFHAKAPHVRISGLHQRFCQQCSRFHALSEFDEAKRSCRRRLAGHNERRRKSTTD
notes: SPL3, Arabidopsis thaliana, At2g33810, full-length CDS in pMAL-c2X; source: Escherichia coli transetta

From PMC8334859, “MIR156-Targeted SPL9 Is Phosphorylated by SnRK2s and Interacts With ABI5 to Enhance ABA Responses in Arabidopsis” (Frontiers in Plant Science, 2021)
